Assay results as given in the domain aggregation screens of Martell et al. (2025).

Assay: soluble fraction after stress (log2 fold change); higher = more stays soluble; pooled small domains, quantitative proteomics
Conditions: stress: pH 4
In short: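 How much of each domain stays soluble after acid stress, expressed as a fold change, is used to gauge aggregation propensity. Pooled custom libraries of small domains underwent pH 4 stress before high-throughput quantitative proteomics. A higher log2 value means more of the domain stayed soluble.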
With “HMETLTPQEHKVLLLAVKGRTNGEIASELGIAQNTVKNHLAHIYAKMGVGNRTELASEYLRRIH” the “soluble fraction (log2)” value was 0.0578. With “HMTQEFIVPKVTGYTVEDAMNLSGVKDVFEITVDSTEKSDQPAGIILFQDPKDGSSRKSDLVIHVVVSAGS” the “soluble fraction (log2)” value was 0.0901. For “HMNVLGQTAIVRSLRLDATFGEVLLADGGAGLIFKARTHGDETFKKGDRVVLLEYLKDQHAYRVISETDFL”, the “soluble fraction (log2)” value was -1.18. With “HMSRSLLAALEKLRESHTGSLPASVLSSAQRRSLESFAQTTKSVQMRPSGRGVVFAIINPEVVDKHWRELS” the “soluble fraction (log2)” value was 0.22. With “HMHGSSVEIPNIYGLPASEAVQLLDKADLRYEVIDSVYTTEVPKGAVYDLSPKAGSRVKAGRIIFLTLNA” the “soluble fraction (log2)” value was -0.075. With “HMAEEGEQAASNTAAQAEDRAAELAAAGEKGKQITKTLVAEFGIPKNEAYRLALDAVAAVKAER” the “soluble fraction (log2)” value was -0.427. With “HMNGNLRAQVLELMGRADYEPLNKSELSRKLDLQGSDRSSLRILMDELERDHSVVRLKKGRFALKVV” the “soluble fraction (log2)” value was 0.0349. For “HMADVPSTIFEAYRILGLNPEAPPVAVKKVVDALRMSWHPDHARSEPDRRHREERIKQINAAWDLLKGV”, the “soluble fraction (log2)” value was -0.128. With “HMLKREDEVIVVAGKDKGKRGTITQLVGDDRVIVAGVNMVKRHTKPNPNLGQPGGIVEREASLHISNV” the “soluble fraction (log2)” value was -0.162. In the case of “HMDFQTDVFISRFAELKKESGETNKDLQDVFELSLSALINYQTGKRIPDIAFLHKLAQHFGVSADYLLGLS”, the “soluble fraction (log2)” value was -0.6. With “HMSLPALSAEEQKIVDALHGTPKGVDDIIAETGISSGALLRSLTMLELKKVIVRLPGNRIAPK” the “soluble fraction (log2)” value was 0.113. With “HMDFGPDSAAPLADGSAPEGFDVKGNADSMLYHEPDGRWYDATVAEVWFRTAEAAQAAGFTKAGS” the “soluble fraction (log2)” value was -2.02. With “HMHDWDITTAAKPEKIFELFSDIPVLETGLKHGTVTLLIDHEPYEVTTFRVDGNYTDGRHPDSVAFT” the “soluble fraction (log2)” value was -0.366. For “HMFAERLKELRKMRRFSQHALAERLGISQQAVGKWETGKSTPDPATLREIADIFEVSVDLLLGR”, the “soluble fraction (log2)” value was 0.124. With “HMQQVIEGLDSDRDFITVPEAIALFAVGRQTLYHYIRSGKIPSVNLGQRLTRLSKKQLGELFPLR” the “soluble fraction (log2)” value was -0.287. For “HMERQILFTKEDLIEFGLSGGTDSRKRRDVLGHILGIGYSNSKQFLNRLNNFGVTREEFLSAIERIG”, the “soluble fraction (log2)” value was -0.454. In the case of “HMQYRQRRGLERMELILDAATRVVAEVGYERTTTNAIATRAGISPGSLYQYFSSKEDIASALWERYAE”, the “soluble fraction (log2)” value was -0.251. For “HMIRALVPGQTLHGEIVGRNGGEVQVRLAEDMILNARVDQNIYLELGKDLTFEVKNNGATLTLSPL”, the “soluble fraction (log2)” value was -0.552. For “HMDGVEVVTKPAGAQIEFAGKSYGPSPVHIPGLVAGSQLILRLPGFQAATVRLRTAPDKSKALEYTLQPA”, the “soluble fraction (log2)” value was -0.0155. With “HMALALSGVDLNRNRLTISWQTSKGVSYRVQRSSDLQSWTDVGAERLGNGNRLSHTQALNTESAFLRVII” the “soluble fraction (log2)” value was -0.674. With “HMTFPTEAKLTGDKVFVRSGPSTQSQRLTNLAINSVVTVLAREMGDMQYPWYKVRYSDGEGWVYGQYVEAI” the “soluble fraction (log2)” value was 0.122. With “HMRSDSEIKEDVLDELMWQPNIDETQIGVIVEKGVVTLTGFVDAYAKKTAALDAVKNVKGVKAVANDIEV” the “soluble fraction (log2)” value was -0.0968. With “HMSSPVIQINTRNDGWIIKLLQPAVEKDVLEGYLADVGLKLQSQMMEKILAAPAGTEFHIKRGSNILTE” the “soluble fraction (log2)” value was -0.133. In the case of “HMALEGTLARVSVRIPESGVGEIIFSLGGVRRSEAARSVSGRAIPRGTEVVILSYERGIATVQPYEELLTN”, the “soluble fraction (log2)” value was -0.256. For “HMKETKVIHVHLIFKKTSRFFGSISAIYSEFTAEEIGITEETLRHKGLSDGVSFATKKAIIQQGVLIR”, the “soluble fraction (log2)” value was -1.45. In the case of “HMSKTDYKILYSDLNREDAKQLSLLLEDKKIPYQTSEDGKTIKIPEGMVNRFRMEVATMGVNF”, the “soluble fraction (log2)” value was -0.014. For “HMARSKSRQSSVLESVPGLGPSRRRNLLRHFGGLQGVVKAGVEDLMAVRGISRTLAETVYDHLHPGS”, the “soluble fraction (log2)” value was 0.22. In the case of “HMPRDQQENIYLLEKGKRLYEEHLGDQRQIIGHRIMIFERILESQDHAQIRRAQSEFAEFLSHYDG”, the “soluble fraction (log2)” value was 0.111. In the case of “HMSFRYLHVKRQLMSLIGTMNAHERLPSRTDLSETFQVARTTIERAISELIGEGWLYARDGSGTYVAER”, the “soluble fraction (log2)” value was -0.919. With “HMSTVEKDSELGGNFRIASYPTGKGQISEAIRSMIVRAKQVGVNIRLNTEATEEPLRALAPNAVILATG” the “soluble fraction (log2)” value was 0.18. With “HMQPYTYNPNFLSDYRAYSLGIPLEAYDKLVQFRASGSFVNSMSDFQKITGVSDSLLAVLHSKFRYPK” the “soluble fraction (log2)” value was -0.602. For “HMTDLDDFAARLKTLTDGRASTPRLRDGVMMLSLDVGGLGPDQRDGLIAAIREGGLTVPGVSDVRIVMT”, the “soluble fraction (log2)” value was 0.22. With “HMRHDSEGYYRLIGVPPDADDAELKEAAKKRLMEAHPDHGGSEDEFVEVYRAYRTLTDPSARAEYDARP” the “soluble fraction (log2)” value was -0.133. For “HMAATVKVPDLTKMTPDEAQRALGQVGLKGKQGDDVDDDSVPVGYIAKQDEAPNSDAKAGDTITYHL”, the “soluble fraction (log2)” value was 0.171. With “HMNLEQTIVLGKRLFNNALDTLGKKQRSIKNKQINKLLELLNFKNMNELYQSIGVGDKNPLLMAQMML” the “soluble fraction (log2)” value was -0.045. For “HMGPEQLIGKTGIAASELAPRGEVKIEGQIWRAETVGDHVKQGEPVEVVSREGLILRVKPKHPQTRG”, the “soluble fraction (log2)” value was -0.0209. With “HMPRSLGADLRAIRKGRRLTLTDMAEALDRSVGWVSQVERDISTPSISDLRRMAEILDVPVSLLFG” the “soluble fraction (log2)” value was -1.59. For “HMYFGDADGNKKVDAADALYLKRHLADWEDYRELPQKTNVSWMDEASPANLMILERHIAGWKDYEMLPYT”, the “soluble fraction (log2)” value was -0.19. In the case of “HMEFDFGAILSGNGGSELYSGYSAEQKAALVEAAKADGMDVEFGADGSTTFKDKDGSEVVQKADGTWTV”, the “soluble fraction (log2)” value was -0.0653. In the case of “HMDIEFSDELRTFIDEWSKKEGGLVMMLHRIQNEYGFIPRTAAEKLSLISGIPLARIYGVITFYHFFKT”, the “soluble fraction (log2)” value was -1.01. In the case of “HMRITRREQQVLHLLAMGMTTREIAGHINLTERTVRNRISNLRDKLGAQTASQLLAKAVAQGLIEP”, the “soluble fraction (log2)” value was 0.426. In the case of “HMFLTDHEVSKVARKRAHAEYLSSLSWRQRTFGDHGERSKNFEAWYKEHSHLYETEKLYKELYKN”, the “soluble fraction (log2)” value was 0.245. For “HMDAMMQRLERLKELASSADGSKDYLILGPLRRDLAKLMALEDPKLRQGAEELDRKILAILS”, the “soluble fraction (log2)” value was -0.437. With “HMFRPDYYEILQVDRHASPEVITAAYRQLLSIYNSEQDGNKQMIKLIQEAYGVLGDSQDRWLYDSWLDNN” the “soluble fraction (log2)” value was -1.37. With “HMFDGYQWLKRDIIRGVYQPEEKLRMSLLTNRYGLGVGPLREALSQLVAEHLVTVVSQKGYRVAPM” the “soluble fraction (log2)” value was -0.0817. In the case of “HMLLGPDALTNRELDVLALLERRLSNKEIGALLYISPRTVKRHTINIYQKLHVNNRRAAVAQAKALGLMPD”, the “soluble fraction (log2)” value was -0.489. In the case of “HMKQLQIPYSFAKRHGVLLRYEGDQAFIVRRDNTSMLALQEARRLLGHPAHYLLYSEQEFNQLLSASFA”, the “soluble fraction (log2)” value was -0.455. For “HMRRADRLLQLIQILRRHRRPVTGDVMARELEVSLRTVYRDIATLTIEGVPIRGEAGVGYVLGEGY”, the “soluble fraction (log2)” value was 0.211. For “HMEAFELTPREKQVLQLLVQGKAYKIIAADLDITYDTVRAHIKKIYEKLHVGSMTEAVAKAIQHKL”, the “soluble fraction (log2)” value was 0.194. With “HMATQMSSARRGIATDEMKQVAKDEDVTLDWLLPKIAIGSIIIPSNNVRPQKIHNVGIGKGMKTKVN” the “soluble fraction (log2)” value was -0.246. With “HMSPSTNKTFSFSKENISIGQTVFIKKLNQNATVLTLPNKSNQLQVQFGVITMNVKLEDLALPTN” the “soluble fraction (log2)” value was -0.0832. In the case of “HMVQIFIPVVHDDHWFLIVFSREEDTFYVLDSLPSLSRISTINGIISTLKEHLQQASVGPQYSVKVLPVK”, the “soluble fraction (log2)” value was 0.144. In the case of “HMAFKEQLKAARLAKGYTQEQLATAIGVAKSTFTGYEKGNSEPNMLTIKKLMEILEVDANYLWY”, the “soluble fraction (log2)” value was -1.44. With “HMNIETHIVPKLLAPIRLQEYGVGIFNNIPTKSALKKALKKQLITVDKTVATTATFIKGGETIELAYQ” the “soluble fraction (log2)” value was -0.299. With “HMRVDYKTQLQELLQRQGAAAPQYRLLVEEGPAHLRRFQVGVYFQGRLLGTGWGRNKKEAEQEAARQALMP” the “soluble fraction (log2)” value was 0.186. With “HMNTISEADAKRIALERAGLTAADYVKVDYDQDDNEYEVEMRSGNTEYEVKISGSTGAVLEYDSETD” the “soluble fraction (log2)” value was -0.0384. With “HMNVVGAKGRIIKISSSEEKMAVAEIEGHGEWNIRTNSEIELFVGKSVEVIEMKGNYLLVNQI” the “soluble fraction (log2)” value was -1.81. For “HMLKASEVLPYVFTDKFFIDDLNLKQDQILGFLEYIDSKLPSQKLLQVSQQFQLIDFLINESKNYKNQ”, the “soluble fraction (log2)” value was -0.252. In the case of “HMQISDTSELEAVVQDILKANMDVVAKIKAGKTNSANFLMGQVMKLTKGRAKPDTVLQLILDAVKQ”, the “soluble fraction (log2)” value was -0.374. For “HMADEIQLVVQVNGKLRGRIMVAPDASREEIEKTALADADVSRFLGDTPVKKVIIVPKRLVNIVAPAPK”, the “soluble fraction (log2)” value was 0.0692. With “HMEHNDPEVERTMFQGLEALKLQLFEKAFGHFSLLIKLAPDYAEAWNKRATVLYLMGRFKESESDVMRTLE” the “soluble fraction (log2)” value was -0.0178. For “HMKNNNIIFSEFLKEVENGRVVEVRIQGNNIQGIMSNGKEFTTYSPNYPNLIEKLTETGVSISAAPL”, the “soluble fraction (log2)” value was -0.516. For “HMGNKWALLVVFILNENGSTRFNQLARQIPDISTKVLSNTLQILEADGLVKRTVFPEVPIRVEYELTATGK”, the “soluble fraction (log2)” value was -0.987. With “HMLKLPVEYLNLKYQLMHATSLDKPNNLMKLDEKLGKIIDVYYDDLPVDEQRVVDILQSKLYSY” the “soluble fraction (log2)” value was -1.72. In the case of “HMSEKLLTLNEISEKLRVSRHTVQAWVSPSSPNHRPEFSSLARHAGRKTVFLESDVDAWLAQRR”, the “soluble fraction (log2)” value was -0.385. For “HMEVPQVETEKVEAKLKEAEVLLVKVTDSSLKANATETLAGLRNNLTLQTMDNNGIMAEAEKLLALLRES”, the “soluble fraction (log2)” value was -0.315. With “HMQNKRQEQLLALLAERRDYMTSRQLAEILQVSDRTIRSDVEAINRRSSPPPIESNVRQGYRLNPEA” the “soluble fraction (log2)” value was -0.0908. For “HMAEVAFEEQNIEQISNLLLRIQAIFAELMTALDKEKGGEIADNLERLYVFFLEKLGDANVRKDPAP”, the “soluble fraction (log2)” value was -0.135. For “HMHSESAAHQRTSVELFARIPETGNLQSAQRHFDVINQFGRFPHRNKILQRPSSEQEEAFLRQPGSG”, the “soluble fraction (log2)” value was -0.0644. With “HMNSLFPLSLKYLREQANITQAELAQKLDVTQQAVGRWERGQTSPDYETLKRLSVLFNVSVDYLLGV” the “soluble fraction (log2)” value was -0.359. For “HMQPGDRVDALIVGVSGEHVFLDVGGKSEGVMAAAELRNEAGELSAAEGDRVQVYLLSNRNGELIFTA”, the “soluble fraction (log2)” value was -0.283. In the case of “HMNLLDYTTLYVTSDGKSVSFGIAGKEIPVSYIAQEAPGTVVIDDTIRIPRKYDMEYILKRFNES”, the “soluble fraction (log2)” value was -1.33. With “HMSKRIFPNEFQRNSPDAMVMLDKMNLSRINVDPLTKSLTLNGGGSVKTLLNGREVSAVEIAALSP” the “soluble fraction (log2)” value was 0.156. For “HMRTFFEIEQLKAYVGEEIQVKFEADSHKQTVLGKLISISEDFIEIENSKKGNLKISLDNYLTSKLIY”, the “soluble fraction (log2)” value was -0.468. For “HMSALIGAHTLERIDSRDFEGVVMAWLPKRDGYDSLYKIYHIEDGDFEELDDREVQAAISLFIEGT”, the “soluble fraction (log2)” value was -0.388.
